# Reference: US12466853B2, “Selective targeting of apoptosis proteins by structurally-stabilized and/or cysteine-reactive NOXA peptides” (priority 2017, dated 2025)
# Positions count from the first letter of the chain named. Positions of bridges follow the written chain, without caps; N, C: chain ends. Non-standard residues stand in square brackets, D forms with d. No end group written: not given here. R8 = C=CCCCCCC[C@@](C)(N)C(=O)O; S5 = C=CCCC[C@](C)(N)C(=O)O
# Experiments:
# [1] = test system: ATM S1981 and CHK2 S33/35 phosphorylation in U937 cells; test: Phospho-signaling analysis (western blot); type: cell-based, human; settings: 2 hr
# Source text: Cells were then washed with PBS, lysed in 1% CHAPS buffer, and the supernatant collected for protein concentration determination by BCA kit. Samples were subjected to electrophoresis and western analysis using 1:1000 dilutions of phospho-ATM (S1981, Cell Signaling, #4526), ATM (Abcam, #ab78), phospho-CHK2 (Ser33/35, Cell Signaling, #2665), CHK2 (Cell Signaling, #2662), and actin (Sigma #A1978) antibodies.
# [2] = test system: BAX protein in U937 cells; test: Dynamic assessment of BAX protein levels (western blot); type: cell-based, human; settings: 5 μM
# Procedure: U937 cells were plated in 6-well plates (2×10^6 cells per well), treated with AZD0156 (5 μM), and the cells harvested and lysed at the indicated time points. Cell lysates were then subjected to electrophoresis and western blotting with BAX (Santa Cruz sc-493) and actin (Sigma #A1978) antibodies.
# [3] = test system: MV4;11 cells; test: Cell viability (CellTiter-Glo) and CalcuSyn synergy, MV4;11
# Procedure: (§1) Cell viability and caspase-3/7 activation was measured using CellTiter-Glo and Caspase-Glo 3/7 chemiluminescence reagents (Promega), respectively, and luminescence was detected by a Spectramax M5 microplate reader. Synergy of drug interactions was calculated using the CalcuSyn software (Biosoft).
# [4] = test system: U937 cells; test: Cell viability (CellTiter-Glo) and CalcuSyn synergy, U937; settings: U937 cells (BFL-1-dependent)
# Procedure: as §1
# [5] = molecular target: T1, His-BFL-1ΔC (Homo sapiens, UniProt Q16548); test: Streptavidin pulldown from recombinant protein mixture, BFL-1; type: binding; settings: equimolar mixture of recombinant MCL-1, BCL-XL, BFL-1 and biotinylated SAHB, silver stain
# T1 construct: Recombinant anti-apoptotic BFL-1ΔC (aa 1-151) and its cysteine to serine mutants were cloned into PET17b; made in house; host or cells: Escherichia coli LOBSTR BL21(DE3)
# T1 sequence (Q16548 1-151): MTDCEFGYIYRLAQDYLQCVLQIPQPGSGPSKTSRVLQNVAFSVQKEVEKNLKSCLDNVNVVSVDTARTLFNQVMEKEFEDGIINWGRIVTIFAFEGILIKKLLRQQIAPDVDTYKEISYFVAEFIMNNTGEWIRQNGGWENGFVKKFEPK
# Procedure: (§2) WT His-BFL-1ΔC, BCL-XLΔC (tagless), and GST-MCL-1ΔNΔC (1 μM each) were combined and incubated with 3 mM DTT in PBS for thirty minutes at room temperature. Mixtures were treated with vehicle or the indicated C-terminally biotinylated NOXA SAHB (1 μM) for four hours and were then added to 30 μL PBS-washed high-capacity streptavidin (SA) agarose beads (Thermo Fisher Pierce) and incubated with rotation at room temperature for two hours. The beads were then washed three times with NP-40 lysis buffer (1% NP-40, 50 mM Tris pH 8, 100 mM NaCl, 2.5 mM MgCl2) and three times with PBS. To elute bound protein, beads were boiled for ten minutes with 10% SDS containing 10 mg/mL biotin. After elution, samples were boiled with 3×LDS and 2M DTT for twenty minutes. Gel electrophoresis using a 12% Bis-Tris gel was conducted on inputs (2%) and eluates (5 μL) and gels were developed using the Pierce silver staining kit (Thermo Fisher).
# [6] = molecular target: T2, MCL-1 (Homo sapiens, UniProt Q07820); test: MCL-1 engagement in A375P lysates (streptavidin pulldown, MCL-1 western); type: binding; settings: biotinylated SAHB
# T2 construct: endogenous protein in lysates from the A375P melanoma cell line; endogenous in cells; host or cells: A375P melanoma cells (lysate)
# Procedure: (§3) Cultured A375P and U937 cells were trypsinized or harvested, respectively, washed with PBS, and lysed by incubating with 1% CHAPS lysis buffer (1% CHAPS, 150 mM NaCl, 50 mM Tris pH 7.4, 100 μM DTT). The protein concentrations of the soluble fraction were measured using a BCA kit according to the manufacturer's instructions (Thermo Scientific). Lysate samples (1 mg) were incubated with vehicle or C-terminally biotinylated NOXA SAHBs (30 μM) overnight in 1% CHAPS lysis buffer at 4° C. Biotin capture was accomplished by incubating the mixture with high-capacity SA agarose (Thermo Scientific) for 2 hours at 4° C., followed by centrifugation and washing the pelleted beads three times with lysis buffer (1 mL). Bead-bound proteins were eluted by boiling in 10% SDS containing 10 mg/mL biotin for 10 minutes and then subjected to electrophoresis and western blotting using BFL-1 (Abcam, #125259) and MCL-1 (Rockland #600-401-394S) antibodies.
# [7] = molecular target: T3, BFL-1ΔC C4S/C19S/C55S / FITC-BID BH3 (Homo sapiens, UniProt Q16548, C19S/C4S/C55S); test: Competitive fluorescence polarization binding assay, BFL-1ΔC C4S/C19S/C55S
# T3 construct: Recombinant anti-apoptotic BFL-1ΔC (aa 1-151) and its cysteine to serine mutants were cloned into PET17b; hexahistidine (N); made in house; host or cells: Escherichia coli LOBSTR BL21(DE3)
# T3 sequence (Q16548 1-151 C4S/C19S/C55S): T1 sequence (Q16548 1-151) with C4S, C19S, C55S
# Procedure: (§4) Fluorescence polarization (FP) assays were performed as previously described (Pitter et al., 2008 (supra)). Briefly, direct binding curves were first generated by FITC-BID BH3 (25 nM) with serial dilutions of anti-apoptotic protein, and FP was measured at 5 min on a SpectraMax M5 microplate reader (Molecular Devices). For competition assays, a serial dilution of acetylated or warhead-bearing NOXA SAHB was added to the indicated recombinant protein at ˜EC75 concentration, as determined by the direct binding assay. FITC-BID BH3 (25 nM) was then added and fluorescence polarization was measured at equilibrium. IC50 values were calculated by nonlinear regression analysis of competitive binding curves using PRISM software (GraphPad).
# [8] = molecular target: T4, BCL-XLΔC / FITC-BID BH3 (Homo sapiens, UniProt Q07817); test: Competitive fluorescence polarization binding assay, BCL-XLΔC
# T4 construct: Recombinant anti-apoptotic BCL-XLΔC (aa 1-212) and MCL-1ΔNΔC (aa 172-329); GST (N, cleaved yes); made in house; host or cells: Escherichia coli BL21(DE3)
# T4 sequence (Q07817 1-212, stated change not applied): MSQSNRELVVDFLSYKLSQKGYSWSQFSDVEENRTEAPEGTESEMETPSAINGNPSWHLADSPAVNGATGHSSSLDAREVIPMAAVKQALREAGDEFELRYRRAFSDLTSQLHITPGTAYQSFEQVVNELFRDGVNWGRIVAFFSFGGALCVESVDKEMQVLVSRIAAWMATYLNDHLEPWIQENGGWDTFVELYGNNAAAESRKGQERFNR
# Procedure: as §4
# [9] = molecular target: T5, FLAG-MCL-1 / tBID (Homo sapiens, UniProt Q07820); test: MCL-1/tBID complex disruption in 293T lysates; type: binding; settings: FLAG immunoprecipitation
# T5 construct: expressed in transfected cells; host or cells: 293T (lysate)
# T5 sequence (Q07820 whole entry): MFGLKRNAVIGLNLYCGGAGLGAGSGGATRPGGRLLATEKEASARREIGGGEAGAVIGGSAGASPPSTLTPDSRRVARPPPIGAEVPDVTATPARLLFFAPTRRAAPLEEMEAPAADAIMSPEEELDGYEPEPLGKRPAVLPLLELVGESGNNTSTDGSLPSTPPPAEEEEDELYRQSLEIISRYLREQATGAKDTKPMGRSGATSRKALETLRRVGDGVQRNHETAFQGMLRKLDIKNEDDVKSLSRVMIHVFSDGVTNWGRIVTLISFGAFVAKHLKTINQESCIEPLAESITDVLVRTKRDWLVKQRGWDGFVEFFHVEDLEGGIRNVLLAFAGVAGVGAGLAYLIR
# Procedure: (§5) To evaluate the capacity of biotinylated SAHBs to compete with tBID for interactions with BFL-1 and MCL-1, 293T cells were transfected with either HA-BFL-1ΔC C4S/C19S or FLAG-MCL-1 in the p3XFLAG-CMV-10 vector (Sigma) as above. After 24 hr, cells were trypsinized, washed with PBS, lysed in 1% CHAPS buffer, and the supernatant collected for protein concentration determination by BCA kit. Lysate samples (0.5 mg) were incubated with 0.25 μM recombinant tBID (R&D Systems) and 5 μM biotinylated NOXA SAHBs for 6 h at RT. The mixtures were then subjected to HA or FLAG immunoprecipitation, followed by western analysis using 1:1000 dilutions of HA (Sigma Aldrich, #12CA5), FLAG (Sigma-Aldrich, F7425), and BID (Santa Cruz sc-11423) antibodies.
# [10] = molecular target: T6, BCL-XLΔC (tagless) (Homo sapiens, UniProt Q07817); test: Streptavidin pulldown from recombinant protein mixture, BCL-XL; type: binding; settings: equimolar mixture of recombinant MCL-1, BCL-XL, BFL-1 and biotinylated SAHB, silver stain
# T6 construct: Recombinant anti-apoptotic BCL-XLΔC (aa 1-212) and MCL-1ΔNΔC (aa 172-329); GST (N, cleaved yes); made in house; host or cells: Escherichia coli BL21(DE3)
# T6 sequence (Q07817 1-212, stated change not applied): as the sequence (Q07817 1-212, stated change not applied) above
# Procedure: as §2
# [11] = molecular target: T7, HA-BFL-1ΔC C4S/C19S / tBID (Homo sapiens, UniProt Q16548, C19S/C4S); test: BFL-1/BH3 complex disruption: competition with tBID in 293T lysates; type: binding; settings: anti-HA immunoprecipitation
# T7 construct: Recombinant anti-apoptotic BFL-1ΔC (aa 1-151) and its cysteine to serine mutants were cloned into PET17b; expressed in transfected cells; host or cells: 293T (lysate)
# T7 sequence (Q16548 1-151 C4S/C19S): T1 sequence (Q16548 1-151) with C4S, C19S
# Procedure: as §5
# [12] = molecular target: T8, GST-MCL-1ΔNΔC (Homo sapiens, UniProt Q07820); test: Streptavidin pulldown from recombinant protein mixture, MCL-1; type: binding; settings: equimolar mixture of recombinant MCL-1, BCL-XL, BFL-1 and biotinylated SAHB, silver stain
# T8 construct: BCL-XLΔC (aa 1-212) and MCL-1ΔNΔC (aa 172-329) were cloned into the PGEX-4T-1; made in house; host or cells: Escherichia coli BL21(DE3)
# T8 sequence (Q07820 172-329, stated change not applied): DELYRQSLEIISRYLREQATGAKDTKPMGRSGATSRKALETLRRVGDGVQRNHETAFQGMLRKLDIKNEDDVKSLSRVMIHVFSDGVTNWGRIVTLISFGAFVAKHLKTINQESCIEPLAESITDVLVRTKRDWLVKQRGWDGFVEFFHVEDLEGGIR
# Procedure: as §2
# [13] = molecular target: T9, full-length BFL-1 (Homo sapiens, UniProt Q16548); test: Covalent crosslinking to full-length BFL-1, recombinant and HA-tagged expressed in 293T cells; type: binding; settings: recombinant and expressed in 293T cells; somewhat reduced efficiency vs C-terminally truncated species
# T9 construct: Recombinant full-length BFL-1 (aa-175) containing an N-terminal hexahistidine tag; made in house
# T9 sequence (Q16548 1-175): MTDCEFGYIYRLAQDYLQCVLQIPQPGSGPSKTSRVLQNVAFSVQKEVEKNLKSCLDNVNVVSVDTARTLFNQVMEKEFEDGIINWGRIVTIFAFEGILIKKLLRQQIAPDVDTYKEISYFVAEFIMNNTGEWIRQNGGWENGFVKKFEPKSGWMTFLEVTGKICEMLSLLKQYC
# Source text: We confirmed that both of our lead constructs could covalently crosslink to full-length BFL-1 protein, which bears a C-terminal helix that could potentially compete with D-NA-NOXA SAHBs for interaction at the canonical BH3-binding pocket in cancer cells. We generated recombinant full-length BFL-1 and expressed HA-tagged full-length BFL-1 in 293T cells, and then conducted crosslinking analyses in vitro and in treated cells, respectively.
# Recombinant full-length BFL-1 (aa-175) containing an N-terminal hexahistidine tag was cloned into the PTYB1 vector (New England Biolabs) and purified as above except for the addition of a chitin affinity chromatography and DTT elution step. Protein purity and identity was confirmed by Coomassie staining and western blot analysis using a mouse monoclonal anti-His6 tag antibody (Abcam).
# His-BFL-1ΔC C4S/C19S protein (5 μM) was pre-treated with 10 mM DTT in 50 mM Tris (pH 8.0) and 100 mM NaCl for 30 min at room temperature (final volume […]) and then combined with a 10:1 molar ratio of cysteine-reactive NOXA SAHB for an additional 1-hr incubation at room temperature. The samples were then boiled in 3× loading buffer with DTT and electrophoresed on 12% Bis-Tris gel, then subjected to Coomassie staining.
# [14] = molecular target: T10, native BFL-1 (Homo sapiens, UniProt Q16548); test: BFL-1 targeting in A375P lysates (streptavidin pulldown, BFL-1 western); type: binding; settings: biotinylated SAHB, compared to acetylated construct
# T10 construct: endogenous in cells; host or cells: A375P melanoma cells (A10); U937 AML cells (A12), lysates
# T10 sequence (Q16548 1-175): T9 sequence (Q16548 1-175)
# Procedure: as §3
compound,measurement,setting,value
CN(C)CCCOc1ccc(-c2ccc3ncc4c(c3c2)n(C2CCOCC2)c(=O)n4C)cn1 [AZD0156],ATM auto-phosphorylation at S1981,[1],dose-responsive inhibition of S1981 auto-phosphorylation
same,CHK2 phosphorylation at S33/35,[1],potent blockade of CHK2 phosphorylation even at the lowest treatment dose
same,protein level of pro-apoptotic BAX,[2],time-dependent increase in the protein level of pro-apoptotic BAX
Cc1c(-c2c(-c3ccc(F)o3)sc3ncnc(O[C@H](Cc4ccccc4OCc4ccnn4CC(F)(F)F)C(=O)O)c23)ccc(OCCN2CCN(C)CC2)c1Cl [S63845],cytotoxic synergy upon co-treatment,[3]; MV4;11 cells (not dependent on BFL-1),synergy in combination with ATM inhibition
same,"cytotoxicity, single agent","[3]; MV4;11 cells (not dependent on BFL-1, dependent on MCL-1)",single agent activity
same,"cytotoxicity, single agent",[4],no activity
"*AT8LRRFGDXLNFRQ [Ac-NOXA SAHB, acetyl-capped i, i+7-stapled NOXA BH3 peptide (aa 26-40)]",BFL-1 binding / pull down,[5],little to no interaction with BFL-1
"AT8LREFGDXLNFRQ (AT[R8]LREFGD[S5]LNFRQ; staple 3-10 (inferred); not fully specified (N-terminus); printed as AT8LREFGDXLNFRQ) [Ac-NOXA-15 R31E, acetylated counterpart of D-NA-NOXA-15 R31E]",MCL-1 engagement,[6],approximately equivalent binding to MCL-1
same,competition for FITC-BID BH3 binding to BFL-1ΔC C4S/C19S/C55S,[7],neither D-NA- nor Ac-NOXA15 R31E competes
same,competition for FITC-BID BH3 binding to BCL-XLΔC,[8],neither Ac- nor D-NA-NOXA-15 R31E is able to compete
same,dissociation of FLAG-MCL-1/tBID interaction,[9],neither D-NA- nor Ac-NOXA15 R31E is able to dissociate the interaction
"AT8LRRAGDXLNFRQ (AT[R8]LRRAGD[S5]LNFRQ; staple 3-10; not fully specified (N-terminus); printed as AT8LRRAGDXLNFRQ) [Ac-NOXA-15 F32A, acetylated counterpart of D-NA-NOXA-15 F32A]",BCL-XL binding / pull down,[10],no binding
same,MCL-1 engagement,[6],approximately equivalent binding to MCL-1
same,competition with tBID for HA-BFL-1ΔC C4S/C19S interaction,[11],incapable of competing with tBID for HA-BFL-1 binding
same,MCL-1 binding / pull down,[12],detectable but minimal direct interaction
same,dissociation of FLAG-MCL-1/tBID interaction,[9],neither D-NA- nor Ac-NOXA15 F32A is able to dissociate the interaction
same,BFL-1 binding / pull down,[5],no binding
JAT8LRRAGDXLNFRQ [D-NA-NOXA-15 F32A],MCL-1 engagement,[6],approximately equivalent binding to MCL-1
same,covalent crosslinking to full-length BFL-1,[13],covalent crosslinking to recombinant and expressed full-length BFL-1
same,targeting of native BFL-1,[14],enhanced targeting of native BFL-1
same,competition with tBID for HA-BFL-1ΔC C4S/C19S interaction,[11],near total inhibition of tBID co-immunoprecipitation
same,dissociation of FLAG-MCL-1/tBID interaction,[9],neither D-NA- nor Ac-NOXA15 F32A is able to dissociate the interaction
same,BFL-1 binding / pull down,[5],striking competitive advantage for BFL-1 targeting over its acetylated counterpart
same,BFL-1 binding / pull down,[5]; listed as D-NA-NOXA-15 F32A SAHB,notably more BFL-1 engagement
